The assay deals with ΔN−3 gp17.1 (bacteriophage SPP1) (UniProt O48449). Nature of the assay: cryo-EM structure; helical reconstruction of polymerized ΔN−3 gp17.1 tubes, 20 mM Tris-HCl pH 7.4 in place of phosphate; the most straight tubes selected; C6, rise 38.46 Å, twist 21.89°; atomic model by hybrid calculation (ISD) with solid-state NMR restraints from gp17.1 tubes.

One may read the stoichiometry N as the number of molecules, sites or subunits per partner or assembly.

Regarding “ΔN−3 gp17.1 (from UniProt O48449 1-264) (natural protein)”, the stoichiometry N is 6.

Values taken from paper PMC7666168.
